Assay in all cases: cell_activity
Series [1] concerns piggyBac transposase. As to conditions: HEK293 transposition; 9.8 CHO, 14.5 HeLa, 5.7 H1299; excision PCR positive.
In series [2] the test system is Sleeping Beauty SB11 transposase. As to conditions: HEK293 transposition; 2.9 CHO, 2.7 HeLa, 1.0 (inactive) H1299; excision PCR positive.
Series [3] has as its system Tol2 transposase. As to conditions: HEK293 transposition; 3.3 CHO, 5.4 HeLa, 4.1 H1299.

The record followed here is US20110130444.

With “TGATTATCTTTCTAGGG (double strand) [piggyBac terminal repeat donor (printed repeat end)]”, the activity (fold over control) in series [1] came out at 115.

Consider “Sleeping Beauty terminal repeat donor plasmid”, for which the activity (fold over control) in series [2] worked out at 8.1.

For the substance Tol2 terminal repeat donor plasmid, the activity (fold over control) in series [3] was 93.9.
